# B1: CMRF35-like molecule 7 (Homo sapiens), A8K4G0 (parent)
# chain: MWLPPALLLLSLSGCFSIQGPESVRAPEQGSLTVQCHYKQGWETYIKWWCRGVRWDTCKILIETRGSEQGEKSDRVSIKDNQKDRTFTVTMEGLRRDDADVYWCGIERRGPDLGTQVKVIVDPEGAASTTASSPTNSNMAVFIGSHKRNHYMLLVFVKVPILLILVTAILWLKGSQRVPEEPGEQPIYMNFSEPLTKDMAT
# partner: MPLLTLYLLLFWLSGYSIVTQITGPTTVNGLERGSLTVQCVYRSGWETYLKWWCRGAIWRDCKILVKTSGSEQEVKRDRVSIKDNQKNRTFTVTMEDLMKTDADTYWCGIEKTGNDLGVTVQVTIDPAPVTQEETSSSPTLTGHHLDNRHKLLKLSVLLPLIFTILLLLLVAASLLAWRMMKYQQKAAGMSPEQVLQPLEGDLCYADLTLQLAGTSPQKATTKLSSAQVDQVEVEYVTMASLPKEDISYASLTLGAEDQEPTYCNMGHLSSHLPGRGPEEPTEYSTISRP
# B2: CMRF35-like molecule 7 (Homo sapiens), A8K4G0 (parent)
# chain: B1 chain
# partner: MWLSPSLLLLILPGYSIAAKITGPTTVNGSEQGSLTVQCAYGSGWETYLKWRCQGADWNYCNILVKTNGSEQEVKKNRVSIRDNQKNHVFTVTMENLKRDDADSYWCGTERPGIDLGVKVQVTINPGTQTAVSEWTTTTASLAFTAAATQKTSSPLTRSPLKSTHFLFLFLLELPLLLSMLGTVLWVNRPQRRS
# B3: CMRF35-like molecule 7 (Homo sapiens), A8K4G0 (parent)
# chain: B1 chain
# partner: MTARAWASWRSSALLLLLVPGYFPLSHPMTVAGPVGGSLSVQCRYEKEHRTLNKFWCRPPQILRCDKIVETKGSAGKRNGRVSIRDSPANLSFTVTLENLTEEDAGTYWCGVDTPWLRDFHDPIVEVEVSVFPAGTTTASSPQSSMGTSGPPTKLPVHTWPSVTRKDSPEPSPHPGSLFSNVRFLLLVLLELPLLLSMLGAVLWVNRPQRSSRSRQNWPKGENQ
# B4: CMRF35-like molecule 7 (Homo sapiens), A8K4G0 (parent)
# chain: B1 chain
# partner: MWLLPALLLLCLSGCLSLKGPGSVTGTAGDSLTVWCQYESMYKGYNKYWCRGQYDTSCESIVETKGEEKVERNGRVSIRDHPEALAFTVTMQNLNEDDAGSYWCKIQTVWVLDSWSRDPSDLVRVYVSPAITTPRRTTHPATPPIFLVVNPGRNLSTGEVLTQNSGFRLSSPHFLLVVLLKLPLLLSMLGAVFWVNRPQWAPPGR
# B5: CMRF35-like molecule 7 (Homo sapiens), A8K4G0 (parent)
# chain: B1 chain
# partner: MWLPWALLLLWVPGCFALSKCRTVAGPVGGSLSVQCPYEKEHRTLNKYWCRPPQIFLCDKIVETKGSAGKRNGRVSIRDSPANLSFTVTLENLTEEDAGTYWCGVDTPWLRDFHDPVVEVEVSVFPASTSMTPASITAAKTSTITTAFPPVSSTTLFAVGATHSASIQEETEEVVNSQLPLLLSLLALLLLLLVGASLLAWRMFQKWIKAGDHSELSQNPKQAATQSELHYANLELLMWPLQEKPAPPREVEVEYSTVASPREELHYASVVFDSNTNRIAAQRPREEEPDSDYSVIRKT
# Variants of: B1
# Conditions: with clm1_human CD300LF
row,Variant,effect of a mutation on the interaction
1,E28A;Q29G,decreasing interaction strength

# Variants of: B2
# Conditions: with clm5_human CD300LD
row,Variant,effect of a mutation on the interaction
1,E28A;Q29G,decreasing interaction strength

# Variants of: B3
# Conditions: with clm6_human CD300C
row,Variant,effect of a mutation on the interaction
1,E28A;Q29G,decreasing interaction strength
2,R95G;D97G,with no effect

# Variants of: B4
# Conditions: with clm2_human CD300E
row,Variant,effect of a mutation on the interaction
1,E28A;Q29G,decreasing interaction strength

# Variants of: B5
# Conditions: with clm8_human CD300A
row,Variant,effect of a mutation on the interaction
1,E28A;Q29G,decreasing interaction strength

# From IntAct's records for PubMed 29051512
